± gives the uncertainty stated by the source.
B1: Far upstream element-binding protein 3, residues 75 to 150; numbered along this chain, Q96I24 (parent)
chain: RTVITEEFKVPDKMVGFIIGRGGEQISRIQAESGCKIQIASESSGIPERPCVLTGTPESIEQAKRLLGQIVDRCRN

Variants of: B1
Experiment: abundance fitness (aPCA) (normalised: wild type 0, dead -1); higher = more abundant; growth selection in yeast, the domain comes from the species named
Conditions: Homo sapiens

| Variant | abundance fitness |
| --- | --- |
| Q38E | -0.013 ± 0.035 |
| Q38R | -0.055 ± 0.027 |
| Q38C | -0.053 ± 0.048 |
| Q38I | -0.098 ± 0.075 |
| Q38A | -0.038 ± 0.031 |
| Q38T | -0.047 ± 0.044 |
| Q38Y | -0.172 ± 0.077 |
| Q38S | -0.06 ± 0.035 |
| Q38V | -0.007 ± 0.028 |
| Q38H | -0.059 ± 0.062 |
| Q38D | -0.092 ± 0.047 |
| Q38N | -0.086 ± 0.066 |
| Q38P | -0.829 ± 0.074 |
| Q38F | -0.1 ± 0.098 |
| Q38K | -0.022 ± 0.05 |
| Q38G | -0.105 ± 0.024 |
| Q38M | -0.101 ± 0.043 |
| Q38W | -0.107 ± 0.032 |
| S33C | -0.079 ± 0.039 |
| S33T | -0.063 ± 0.042 |
| S33F | -0.591 ± 0.072 |
| S33V | -0.247 ± 0.033 |
| S33P | -0.728 ± 0.06 |
| S33D | -0.648 ± 0.06 |

| Variant | abundance fitness |
| --- | --- |
| S33M | -0.646 ± 0.052 |
| S33I | -0.358 ± 0.088 |
| S33K | -0.787 ± 0.081 |
| S33Q | -0.732 ± 0.057 |
| S33E | -0.641 ± 0.048 |
| S33N | -0.685 ± 0.075 |
| S33H | -0.716 ± 0.087 |
| S33R | -0.827 ± 0.036 |
| S33G | -0.747 ± 0.032 |
| S33A | -0.138 ± 0.034 |
| Q25V | -0.08 ± 0.032 |
| Q25M | -0.036 ± 0.046 |
| Q25S | -0.026 ± 0.034 |
| Q25P | -0.163 ± 0.041 |
| Q25H | -0.077 ± 0.057 |
| Q25A | -0.098 ± 0.03 |
| Q25T | -0.133 ± 0.044 |
| Q25I | -0.112 ± 0.069 |
| Q25G | -0.058 ± 0.026 |
| Q25W | -0.213 ± 0.033 |
| Q25E | -0.024 ± 0.036 |
| Q25K | -0.037 ± 0.047 |
| Q25N | -0.041 ± 0.072 |
| Q25Y | -0.197 ± 0.06 |

| Variant | abundance fitness |
| --- | --- |
| Q25L | -0.138 ± 0.033 |
| Q25R | 0.023 ± 0.026 |
| Q25C | -0.025 ± 0.041 |
| Q25F | -0.105 ± 0.082 |
| I37F | -0.447 ± 0.06 |
| I37K | -0.522 ± 0.046 |
| I37A | -0.515 ± 0.034 |
| I37T | -0.505 ± 0.047 |
| I37L | -0.158 ± 0.031 |
| I37D | -0.528 ± 0.051 |
| I37S | -0.658 ± 0.037 |
| I37M | -0.232 ± 0.039 |
| I37R | -0.73 ± 0.03 |
| I37Y | -0.799 ± 0.088 |
| I37P | -0.609 ± 0.048 |
| I37N | -0.69 ± 0.077 |
| I37W | -0.955 ± 0.044 |
| I37H | -0.816 ± 0.087 |
| I37E | -0.595 ± 0.038 |
| I37C | -0.239 ± 0.04 |
| I37Q | -0.665 ± 0.048 |
| I37G | -0.664 ± 0.028 |
| A31E | 0.025 ± 0.034 |
| A31Y | -0.076 ± 0.05 |

| Variant | abundance fitness |
| --- | --- |
| A31K | 0.033 ± 0.041 |
| A31T | -0.039 ± 0.038 |
| A31L | -0.063 ± 0.029 |
| A31S | -0.029 ± 0.032 |
| A31P | -0.774 ± 0.048 |
| A31D | -0.015 ± 0.046 |
| A31H | 0.057 ± 0.051 |
| A31W | -0.168 ± 0.03 |
| A31M | -0.07 ± 0.039 |
| A31F | -0.127 ± 0.055 |
| A31R | -0.005 ± 0.025 |
| A31N | -0.044 ± 0.063 |
| A31G | -0.06 ± 0.025 |
| A31I | -0.025 ± 0.06 |
| A31V | -0.061 ± 0.029 |
| A31Q | 0.003 ± 0.038 |
| I29G | -0.677 ± 0.028 |
| I29F | -0.278 ± 0.054 |
| I29T | -0.271 ± 0.042 |
| I29P | -0.625 ± 0.051 |
| I29H | -0.622 ± 0.083 |
| I29M | -0.105 ± 0.038 |
| I29A | -0.213 ± 0.032 |
| I29W | -0.521 ± 0.034 |

| Variant | abundance fitness |
| --- | --- |
| I29L | -0.034 ± 0.031 |
| I29D | -0.432 ± 0.052 |
| I29E | -0.621 ± 0.039 |
| I29Q | -0.599 ± 0.052 |
| I29S | -0.595 ± 0.038 |
| I29R | -0.856 ± 0.033 |
| I29K | -0.676 ± 0.058 |
| I29V | -0.049 ± 0.027 |
| I29C | -0.191 ± 0.038 |
| I29Y | -0.579 ± 0.071 |
| Q30H | -0.279 ± 0.075 |
| Q30E | 0.029 ± 0.033 |
| Q30D | -0.582 ± 0.059 |
| Q30G | -0.171 ± 0.025 |
| Q30F | -0.464 ± 0.084 |
| Q30T | -0.11 ± 0.043 |
| Q30V | -0.142 ± 0.031 |
| Q30Y | -0.31 ± 0.067 |
| Q30L | -0.471 ± 0.036 |
| Q30M | -0.097 ± 0.041 |
| Q30S | -0.051 ± 0.037 |
| Q30K | -0.171 ± 0.047 |
| Q30N | -0.369 ± 0.066 |
| Q30R | -0.05 ± 0.026 |

| Variant | abundance fitness |
| --- | --- |
| Q30P | -0.693 ± 0.05 |
| Q30I | -0.131 ± 0.059 |
| Q30W | -0.487 ± 0.038 |
| Q30A | -0.058 ± 0.031 |
| S41R | 0.032 ± 0.027 |
| S41W | -0.159 ± 0.033 |
| S41K | 0.058 ± 0.04 |
| S41N | 0.022 ± 0.057 |
| S41C | -0.026 ± 0.044 |
| S41A | -0.035 ± 0.031 |
| S41D | -0.06 ± 0.044 |
| S41V | -0.089 ± 0.03 |
| S41I | -0.092 ± 0.07 |
| S41Y | -0.164 ± 0.069 |
| S41Q | 0.012 ± 0.041 |
| S41T | -0.02 ± 0.038 |
| S41P | -0.027 ± 0.041 |
| S41H | -0.099 ± 0.089 |
| S41F | -0.176 ± 0.059 |
| S41G | -0.015 ± 0.026 |
| A40N | -0.076 ± 0.057 |
| A40L | -0.038 ± 0.03 |
| A40M | -0.063 ± 0.04 |
| A40I | -0.036 ± 0.07 |

| Variant | abundance fitness |
| --- | --- |
| A40H | -0.032 ± 0.058 |
| A40V | -0.094 ± 0.029 |
| A40Q | 0.044 ± 0.039 |
| A40P | -0.024 ± 0.04 |
| A40F | 0.013 ± 0.057 |
| A40Y | -0.112 ± 0.062 |
| A40D | 0.002 ± 0.043 |
| A40W | -0.1 ± 0.033 |
| A40K | -0.024 ± 0.037 |
| A40G | -0.018 ± 0.025 |
| A40T | -0.04 ± 0.038 |
| S27A | -0.033 ± 0.034 |
| S27L | -0.075 ± 0.037 |
| S27H | -0.117 ± 0.066 |
| S27Y | -0.241 ± 0.095 |
| S27T | 0.026 ± 0.041 |
| S27W | -0.167 ± 0.035 |
| S27V | -0.092 ± 0.033 |
| S27C | -0.147 ± 0.054 |
| S27N | 0.023 ± 0.073 |
| S27F | -0.153 ± 0.067 |
| S27Q | -0.066 ± 0.05 |
| S27R | 0.068 ± 0.029 |

— the Human Domainome abundance scans (Beltran et al. 2025)
